From patent US7115711 (GENERAL HOSPITAL, dated 2006) come the findings set out here.

To fix the notation:
T1: LexA-TR (bacterial; rat, UniProt P0A7C2 1-202; P18113 170-461, limits assumed)
T1 construct: also called Lex fusion TR
T1 sequence (looked up): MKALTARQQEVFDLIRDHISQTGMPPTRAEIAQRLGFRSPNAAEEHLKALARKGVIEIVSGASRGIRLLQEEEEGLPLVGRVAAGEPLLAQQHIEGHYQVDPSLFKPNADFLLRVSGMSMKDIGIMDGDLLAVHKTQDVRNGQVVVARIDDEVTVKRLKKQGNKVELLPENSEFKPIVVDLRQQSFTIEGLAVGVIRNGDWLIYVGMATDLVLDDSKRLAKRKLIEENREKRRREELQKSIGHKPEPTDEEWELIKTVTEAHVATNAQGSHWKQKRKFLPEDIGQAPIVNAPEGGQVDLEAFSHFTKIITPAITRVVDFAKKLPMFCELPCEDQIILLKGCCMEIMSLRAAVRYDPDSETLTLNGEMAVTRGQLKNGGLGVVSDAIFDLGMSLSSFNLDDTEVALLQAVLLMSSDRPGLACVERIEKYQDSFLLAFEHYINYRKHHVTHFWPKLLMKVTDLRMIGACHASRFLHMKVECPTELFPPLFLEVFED

T2: B42-RIP110 (mouse, UniProt Q5U5Q9 20-727)
T2 construct: Clone from a mouse liver cDNA library fused to B42; also called B42-110; B42 fusion 110
T2 sequence: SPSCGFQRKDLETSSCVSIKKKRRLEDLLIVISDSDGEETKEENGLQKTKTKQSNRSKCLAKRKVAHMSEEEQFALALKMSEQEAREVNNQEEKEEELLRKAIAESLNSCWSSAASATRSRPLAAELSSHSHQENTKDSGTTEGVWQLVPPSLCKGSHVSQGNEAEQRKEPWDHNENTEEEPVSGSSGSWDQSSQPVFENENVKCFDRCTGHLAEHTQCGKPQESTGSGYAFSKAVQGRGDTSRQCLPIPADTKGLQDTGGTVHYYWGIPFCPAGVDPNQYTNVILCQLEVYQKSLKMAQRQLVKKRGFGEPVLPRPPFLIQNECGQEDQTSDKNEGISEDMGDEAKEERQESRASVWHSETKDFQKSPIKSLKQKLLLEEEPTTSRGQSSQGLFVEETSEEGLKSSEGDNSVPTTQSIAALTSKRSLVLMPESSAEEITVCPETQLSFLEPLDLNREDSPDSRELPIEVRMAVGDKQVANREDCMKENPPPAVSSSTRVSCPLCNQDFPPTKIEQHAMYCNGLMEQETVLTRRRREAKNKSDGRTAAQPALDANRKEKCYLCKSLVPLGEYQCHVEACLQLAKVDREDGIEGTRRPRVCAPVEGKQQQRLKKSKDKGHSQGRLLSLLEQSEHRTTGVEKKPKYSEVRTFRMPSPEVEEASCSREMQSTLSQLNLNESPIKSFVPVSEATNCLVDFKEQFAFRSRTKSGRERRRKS

B1: B42-RIP13 (other, not shown: large carriers)
chain: DALAALVDAAASAPQMDVSKTKESKHEAARLEENLRSRSAAVSEQQQLEQKNLEVEKRSVQCVCTSSALPSGKAQPHASVVYSEAGKDKGPPPKSRYEEELRTRGKTTITAANFIDVTITRQIASDKDARERGSQSSDSSSSLSSHRYETASDAIEVISPASSPAPPQEKPQAYQPDMVKANQAENESTRQYEGPLHHYRSQQESPSPQQQPPLPPSSQSEGMGQVPRTHRLITLADHICQIITQDFARNQVPSQPSTSTFQTSPSALSSTPVRTKTSSRYSPESQSQTVLHPRPGPRVSPENLVDKSRGSRPGKSPERSHIPSEPYEPISPPQGPAVHEKQDSMLLLSQRGVDPAEQRSDSRSPGSISYLPSFFTKLESTSPMVKSKKQEIFRKLNSSGGGDSDMAAAQPGTEIFNLPAVTTSGAVSSRSHSFADPASNLGLEDIIRKALMGSFDDKVEDHGVVMSHPVGIMPGSASTSVVTSSEARRDEGEPSPHAGVCKPKLINKSNSRKSKSPIPGQSYLGTERPSSVSSVHSEGDYHRQTPGWAWEDRPSSTGSTQFPYNPLTIRMLSSTPPTQIACAPSAITQAAPHQQNRIWEREPAPLLSAQYETLSDSDD
B2: B42-PPAR clone starting at amino acid 91 (other, mouse, UniProt P23204 91-468, looked up, not shown: large carriers)
chain: DESPGSALNIECRICGDKASGYHYGVHACEGCKGFFRRTIRLKLVYDKCDRSCKIQKKNRNKCQYCRFHKCLSVGMSHNAIRFGRMPRSEKAKLKAEILTCEHDLKDSETADLKSLGKRIHEAYLKNFNMNKVKARVILAGKTSNNPPFVIHDMETLCMAEKTLVAKMVANGVEDKEAEVRFFHCCQCMSVETVTELTEFAKAIPGFANLDLNDQVTLLKYGVYEAIFTMLSSLMNKDGMLIAYGNGFITREFLKNLRKPFCDIMEPKFDFAMKFNALELDDSDISLFVAAIICCGDRPGLLNIGYIEKLQEGIVHVLKLHLQSNHPDDTFLFPKLLQKMVDLRQLVTEHAQLVQVIKKTESDAALHPLLQEIYRDMY
notes: range 91-C-terminus; Only the start is stated; also called PPAR (four clones)
B3: B42-PPAR (plasmid isolated from the screening, as used in Table 1) (other, mouse, UniProt P23204 91-468, looked up, not shown: large carriers)
chain: B2 chain
notes: 'For B42-PPAR, the plasmid isolated from the screening was used'; also called B42 fusion PPAR
B4: B42-PPAR clone starting at amino acid 84 (other, mouse, UniProt P23204 84-468, looked up, not shown: large carriers)
chain: PVIPASTDESPGSALNIECRICGDKASGYHYGVHACEGCKGFFRRTIRLKLVYDKCDRSCKIQKKNRNKCQYCRFHKCLSVGMSHNAIRFGRMPRSEKAKLKAEILTCEHDLKDSETADLKSLGKRIHEAYLKNFNMNKVKARVILAGKTSNNPPFVIHDMETLCMAEKTLVAKMVANGVEDKEAEVRFFHCCQCMSVETVTELTEFAKAIPGFANLDLNDQVTLLKYGVYEAIFTMLSSLMNKDGMLIAYGNGFITREFLKNLRKPFCDIMEPKFDFAMKFNALELDDSDISLFVAAIICCGDRPGLLNIGYIEKLQEGIVHVLKLHLQSNHPDDTFLFPKLLQKMVDLRQLVTEHAQLVQVIKKTESDAALHPLLQEIYRDMY
notes: range 84-C-terminus; Only the start is stated; also called PPAR (three clones)
B5: LexA-RXR (other, bacterial;human, UniProt P0A7C2 1-202, looked up)
chain: MKALTARQQEVFDLIRDHISQTGMPPTRAEIAQRLGFRSPNAAEEHLKALARKGVIEIVSGASRGIRLLQEEEEGLPLVGRVAAGEPLLAQQHIEGHYQVDPSLFKPNADFLLRVSGMSMKDIGIMDGDLLAVHKTQDVRNGQVVVARIDDEVTVKRLKKQGNKVELLPENSEFKPIVVDLRQQSFTIEGLAVGVIRNGDWLLAMGMKREAVQEERQRGKDRNENEVESTSSANEDMPVERILEAELAVEPKTETYVEANMGLNPSSPNDPVTNICQAADKQLFTLVEWAKRIPHFSELPLDDQVILLRAGWNELLIASFSHRSIAVKDGILLATGLHVHRNSAHSAGVGAIFDRVLTELVSKMRDMQMDKTELGCLRAIVLFNPDSKGLSNPAEVEALREKVYASLEAYCKHKYPEQPGRFAKLLLRLPALRSIGLKCLEHLFFFKLIGDTPIDTFLMEMLEAPHQMT
notes: also called Lex fusion RXR

In experiment [1] the target is B5. Put plainly: cell-based or functional assay.
In experiment [2] the target is B5. Description: yeast interaction trap screen; clones showing specific interaction with LexA-RXR; four clones starting at amino acid 91. On the procedure: (§1) From 3×10^6 primary yeast transformants, a number of β-gal expressing colonies were identified in two independent screens carried out in the presence or absence of 9-cis-RA. Since expression of the B42-cDNA fusion proteins was induced by growth on galactose, candidates obtained from each condition were tested for galactose-dependent expression of both β-gal and LEU2, in the presence or absence of 9-cis-RA, using appropriate indicator plates (see below).
(§2) Candidates showing specific interaction with LexA-RXR were sequenced across the B42 fusion junction using an appropriate vector primer, and additional sequence was determined. The deduced amino acid sequences were compared to those in the GenBank and EMBL databases using the GCG (Devereux et al., Nucleic Acids Res. 12:387–395, 1984) and BLAST programs (Altschul et al., J. Mol. Biol. 215:403–410, 1990). […] All of these clones included intact ligand binding domains, as expected from the fact that the major heterodimerization function lies within that domain. For PPAR (Issemann et al., Nature 347:645–650, 1990), three clones started at amino acid 84, just N-terminal to the DNA binding (C) domain, four others started at 91, within the C domain, and one at 170, just past the C domain. For RAR (Leroy et al., EMBO J. 10:59–69), all six clones started at amino acid 132, within the C domain.

Experiment [3] concerns the target T1, LexA-TR. Put plainly: yeast interaction trap, X-gal plate, with T3; W = white (no interaction). On the procedure: (§3) Interactions of the RIP clones with other superfamily members, including RAR, TR, the glucocorticoid receptor (GR), and MB67, an orphan isolated in this lab (Baes et al., Mol. Cell. Biol. 14:1544–1552, 1994) were also tested using a series of appropriate LexA fusions. In particular, the experiments shown in Table 1 were carried out as follows. Yeast transformants containing a lacZ reporter gene under the control of LexA binding sites and the indicated B42- and Lex-fusion protein expression vectors were transferred onto galactose-Ura⁻His⁻Trp⁻ plates containing X-gal and incubated for two days. Relative levels of β-galactosidase activity were estimated and are depicted as follows: B, blue (strong interaction); LB, light blue (weak interaction); W, white (no interaction); nt, not tested. At least three separate colonies were tested on the same plate for interaction. To test the effects of ligands, 100 µl of a 10^-6M solution of the appropriate ligand was spread onto plates just before inoculation of cells (9-cis-RA for RXR, T3 for TR, and all-trans-RA for RAR). For B42-PPAR, the plasmid isolated from the screening was used. Both full length and truncated RAR fusions to LexA were tested with identical results for all the B42 fusions except B42-110, which was tested only with the full length fusion.

The target in experiment [4] is B5. Put plainly: yeast interaction trap screen; clones showing specific interaction with LexA-RXR; three clones starting at amino acid 84. The procedure:
as §1, §2

Experiment [5] addresses B1. Description: yeast interaction trap, X-gal plate, with 9-cis-RA; B = blue (strong interaction). On the procedure:
as §3

Experiment [6] has as its target T2, B42-RIP110. The experiment is described as above. The procedure: as §3

Consider B1, for which the “β-gal expression (lacZ reporter under LexA binding sites, yeast liquid culture)” value in experiment [1] was roughly 3 fold.
For B2, in experiment [2], the binding result was “binds”.
For B3, the binding result in experiment [3] was “no binding”.
With B4, the binding result in experiment [4] was “binds”.
In the case of B5, the binding result in experiment [5] and in experiment [6] was “binds” throughout.
